This note sets out measurements from patent US20180057579A1 (Pfizer, published 2018).

Substitutions are numbered along the chain they refer to. Names may count otherwise. Where only a bound is given, the exact number is not on record here.

For assay [1], the target named is T1, CD32b (Fc gamma receptor) (UniProt P31994 43-217).
T1 sequence (looked up): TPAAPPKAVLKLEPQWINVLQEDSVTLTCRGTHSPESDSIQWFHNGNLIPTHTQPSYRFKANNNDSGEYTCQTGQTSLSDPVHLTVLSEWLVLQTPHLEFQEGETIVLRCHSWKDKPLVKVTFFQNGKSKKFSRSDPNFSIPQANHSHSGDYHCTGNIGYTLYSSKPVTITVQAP
Briefly: SPR (Biacore T200), OGD1.0.0 captured on biotin-GDF-8 on an SA chip, receptor flowed. In general terms: SPR reads the build-up and loss of mass on a sensor chip optically.

Assay [2] concerns the target T2, Growth and differentiation factor-8 (GDF-8), mature human (human, UniProt O14793 267-375, conjugated to biotin in the ActRIIB ELISA and in the Fc gamma receptor SPR (site not stated)).
T2 construct: also called myostatin; human GDF-8
Briefly: SPR.

Assay [3] concerns the target T3, CD32a-131H (Fc gamma receptor) (UniProt P12318 34-217).
T3 construct: The 131H allotype is as printed
T3 sequence (looked up): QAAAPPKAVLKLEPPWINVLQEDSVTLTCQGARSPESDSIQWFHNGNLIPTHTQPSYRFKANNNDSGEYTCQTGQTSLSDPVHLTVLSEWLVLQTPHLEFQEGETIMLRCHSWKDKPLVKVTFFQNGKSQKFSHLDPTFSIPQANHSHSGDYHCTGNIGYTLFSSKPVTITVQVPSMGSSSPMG
Briefly: SPR (Biacore T200), OGD1.0.0 captured on biotin-GDF-8 on an SA chip, receptor flowed, single-cycle kinetics.

For assay [4], the target named is T4, CD16a-158V (Fc gamma receptor) (UniProt P08637 17-208).
T4 construct: The 158V allotype is as printed
Described as above.

For a further assay, the target named is CD64 (Fc gamma receptor) (UniProt P12314 16-288, limits assumed). The assay is described as above.
Assay [5] concerns the target T2, Growth and differentiation factor-8 …. Briefly: competition ELISA: antibody inhibits biotin-GDF-8 (10 ng/ml) binding to coated ActRIIB-Fc.
Assay [6] shares this target. Briefly: SPR (BIACORE 3000), antibody captured on protein A, GDF-8 flowed, 1:1 Langmuir fit.
Assay [7] has the same target. Briefly: cell-based or functional assay.
The target is the same in assay [8]. Briefly: cell-based or functional assay. The source holds these as a separate data set.
The target is the same in assay [9]. Briefly: competition ELISA (GDF-8 / ActRIIB-Fc). On the technique in general: In an ELISA, binding on a coated surface is turned into a signal by an enzyme label.
For assay [10] the target is unchanged. Briefly: competition ELISA.
For assay [11] the target is unchanged. Briefly: SPR (BIACORE 3000), antibody captured with anti-mouse IgG, GDF-8 flowed, 1:1 Langmuir fit.
For assay [12] the target is unchanged. Briefly: SPR (BIACORE 3000), captured antibody, GDF-8 flowed, 1:1 Langmuir fit.

B1: OGD1.0.0 humanized anti-GDF-8 antibody (VH0 and VL0) (antibody, human IgG1, kappa)
heavy: EVQLLESGGGLVQPGGSLRLSCAASGFTFSSYAMSWVRQAPGKGLEWVSTISSGGSYTSYPDSVKGRFTISRDNSKNTLYLQMNSLRAEDTAVYYCAKQDYAMNYWGQGTLVTVSSASTKGPSVFPLAPSSKSTSGGTAALGCLVKDYFPEPVTVSWNSGALTSGVHTFPAVLQSSGLYSLSSVVTVPSSSLGTQTYICNVNHKPSNTKVDKKVEPKSCDKTHTCPPCPAPEAAGAPSVFLFPPKPKDTLMISRTPEVTCVVVDVSHEDPEVKFNWYVDGVEVHNAKTKPREEQYNSTYRVVSVLTVLHQDWLNGKEYKCKVSNKALPAPIEKTISKAKGQPREPQVYTLPPSREEMTKNQVSLTCLVKGFYPSDIAVEWESNGQPENNYKTTPPVLDSDGSFFLYSKLTVDKSRWQQGNVFSCSVMHEALHNHYTQKSLSLSPGK
light: DIQMTQSPSSLSASVGDRVTITCKASQDVSTAVAWYQQKPGKAPKLLIYSASYRYTGVPSRFSGSGSGTDFTLTISSLQPEDFATYYCQQHYSTPWTFGGGTKVEIKRTVAAPSVFIFPPSDEQLKSGTASVVCLLNNFYPREAKVQWKVDNALQSGNSQESVTEQDSKDSTYSLSSTLTLSKADYEKHKVYACEVTHQGLSSPVTKSFNRGEC
notes: also called OGD1.0.0 antibody
Regarding B1, the values for the Kd in assay [1], in [2] and in assay [6] were greater than 21000 nM, 0.00259 nM and 0.00259 nM, respectively. In addition, the binding result is listed as “no binding (tested: 0-21 µM)” in assay [3], “no binding (tested: 0-21 µM)” in assay [4] and “no binding (tested: 0-270 nM)” with CD64 (Fc gamma receptor). The molecule further showed an IC50 in [5] of 0.14 nM. The “IC50 by reporter gene assay compared to OGD1.0.0” value in assay [7] was 1 fold of OGD1.0.0. In [8], the “CAGA EC50” value was determined as 27.3 nM. Also, in assay [9], the “IC50 by ELISA compared to OGD1.0.0” value is 1 fold of OGD1.0.0.

B2: OGD1.1.1 humanized anti-GDF-8 antibody (VH1 and VL1) (antibody, human IgG1, kappa)
heavy: B1 heavy with L111M
light: B1 light with G100Q
Molecule B2 came in with an IC50 in assay [5] of 0.14 nM. This molecule came in with a Kd in assay [6] of 0.00725 nM. Moreover, in [8], the “CAGA EC50” value came out at 26 nM.

B3: OGD1.0.2 humanized anti-GDF-8 antibody (VH0 and VL2) (antibody, V domains shown)
VH: EVQLLESGGGLVQPGGSLRLSCAASGFTFSSYAMSWVRQAPGKGLEWVSTISSGGSYTSYPDSVKGRFTISRDNSKNTLYLQMNSLRAEDTAVYYCAKQDYAMNYWGQGTLVTVSS
VL: DIQMTQSPSSLSASVGDRVTITCKASQDVSTAVAWYQQKPGKAPKLLIYAASSLQSGVPSRFSGSGSGTDFTLTISSLQPEDFATYYCQQHYSTPWTFGGGTKVEIK
notes: Intact antibody produced in COS-1 cells
With B3, in assay [2], binding was put at a Kd of 0.00146 nM. Besides, in assay [7], the “IC50 by reporter gene assay compared to OGD1.0.0” value is 1.03 fold of OGD1.0.0. Moreover, in assay [9], the “IC50 by ELISA compared to OGD1.0.0” value is 0.91 fold of OGD1.0.0.

B4: OGD1.0.3 humanized anti-GDF-8 antibody (VH0 and VL3) (antibody, V domains shown)
VH: B3 VH
VL: B3 VL with K24R, D28S, V29I, V33L, A34N, A50S, H91S
B4: the equilibrium dissociation constant (Kd) in assay [2] stood at 0.00317 nM. For the same molecule, the “IC50 by reporter gene assay compared to OGD1.0.0” value in assay [7] was 0.85 fold of OGD1.0.0. Besides, the “IC50 by ELISA compared to OGD1.0.0” value in [9] is 0.96 fold of OGD1.0.0.

B5: OGD1.0.4 humanized anti-GDF-8 antibody (VH0 and VL4) (antibody, V domains shown)
VH: B3 VH
VL: not shown
notes: VL4 is VL3 with S50A
Regarding B5, binding in assay [2] was put at a Kd of 0.00246 nM. Moreover, in assay [7], the “IC50 by reporter gene assay compared to OGD1.0.0” value is 1.54 fold of OGD1.0.0. The “IC50 by ELISA compared to OGD1.0.0” value in assay [9] is 0.61 fold of OGD1.0.0.

B6: OGD1.3.0 humanized anti-GDF-8 antibody (VH3 and VL0) (antibody, V domains shown)
VH: B3 VH with T50A, G54S, S56G, S59Y, P61A
VL: B3 VL with A50S, S53Y, L54R, Q55Y, S56T
Consider B6, for which the binding result in assay [10] is “binds”.

B7: OGD1.4.0 humanized anti-GDF-8 antibody (VH4 and VL0) (antibody, V domains shown)
VH: B3 VH with M103F, N104D
VL: B3 VL with A50S, S53Y, L54R, Q55Y, S56T
notes: VH4 carries M99F and N101D in CDR3
In turn, B7 yielded a Kd in assay [2] of 0.284 nM. Further, in [7], the “IC50 by reporter gene assay compared to OGD1.0.0” value was 7.5 fold of OGD1.0.0. Moreover, the “IC50 by ELISA compared to OGD1.0.0” value in [9] was 1.71 fold of OGD1.0.0.

B8: OGD1.0.5 humanized anti-GDF-8 antibody (VH0 and VL5) (antibody, V domains shown)
VH: B3 VH
VL: B3 VL with K24R, D28S, V29I, V33L, A34N, A50S, H91S, W96L
notes: VL5 is VL3 with W96L
B8 showed a Kd in assay [2] of 0.057 nM. Moreover, in [9], the “IC50 by ELISA compared to OGD1.0.0” value is 5.94 fold of OGD1.0.0.

B9: Murine anti-GDF-8 monoclonal antibody (parental murine antibody) (antibody, V domains shown)
VH: EVQLVESGGGLVKPGGSLKLSCAASGFTFSSYAMSWVRQTPEKRLEWVATISSGGSYTSYPDSVKGRFTISRDNAKNTLYLQMSSLRSEDTAMYYCARQDYAMNYWGQGTSVTVSS
VL: DIEMTQSHKFMSTSVGDRVSITCKASQDVSTAVAWYQQKPGQSPKLLLYSASYRYTGVPDRFTGSGSGTDFTFTISSVQAEDLAVYYCQQHYSTPWTFGGGTKLEIK
notes: also called mouse anti-GDF-8 antibody
In the case of B9, the Kd in assay [11] was 0.0218 nM. Moreover, the IC50 in assay [5] was determined as 0.165 nM. For the same molecule, the “CAGA EC50” value in assay [8] stood at 33.5 nM.

B10: Chimeric mouse-human anti-GDF-8 antibody (murine variable domains and human constant domains) (antibody, human IgG1, V domains shown)
VH: B9 VH
VL: B9 VL
notes: also called Chimeric antibody
Turning to B10, the IC50 in assay [5] was 0.165 nM. Further, binding in assay [12] was put at a Kd of 0.00299 nM. Further, the “CAGA EC50” value in assay [8] was 24.2 nM.

The term Kd denotes the free concentration of one partner at which half of the binding sites on the other are occupied at equilibrium, for simple one-to-one binding. For orientation: IC50 means the concentration that inhibits the measured activity by half.
